We go through 3 molecules from patent US20220242962A1 (APTEVO RESEARCH AND DEVELOPMENT, published 2022).

For assay [1], the target named is T1, C1Q (UniProt P02745 23-245; P02746 28-253; P02747 29-245).
T1 construct: also called complement C1Q
The assay is described as follows: SPR, Fc captured, C1Q as analyte. The procedure:
(§1) Fc mutations to be potentially integrated into an ADAPTIR™ bispecific construct were analyzed for binding to the common Fc receptors (human and cyno) and C1Q, which is a component of the complement activation system. SPR experiments were conducted at 25° C. in HBS-EP+ buffer on a Biacore T200 system.
(§2) For these experiments, all four flow cells of a CM5 sensor chip were immobilized with goat F(ab′)2 anti-human Fc (Jackson ImmunoResearch) to a response level of ˜4000 RU. Fc variants and wild type Fc were diluted to 100 nM in HBS-EP+ and captured on the surface of the chip for 120 seconds at a flow rate of 10 μL/min. Fcγ receptors (human and cyno, all purchased from R&D Systems) and complement (C1Q, purchased from Quidel Corporation and Complement Technology, Inc) were diluted in HBS-EP+ and then flowed as analytes at 30 μL/min for 120 seconds followed by a 120 seconds dissociation. Regeneration was achieved by flowing 10 mM glycine pH 1.7 at 30 μL/min for 30 seconds followed by a 60 seconds stabilization. Flow cell 1 was always left as a blank (no captured protein) for purposes of background signal subtraction. Blank-subtracted sensorgrams for each captured Fc variant were inspected for the presence of binding to any of the Fcγ receptor proteins or complement. There are polymorphisms in the Human Fc receptors IIA and RIIIA, so both sequences were tested for binding.
In general terms: Surface plasmon resonance follows binding to a sensor surface in real time, without labels.

For assay [2], the target named is T2, Fc gamma receptor RI (human, UniProt P12314 16-288).
T2 construct: also called FcγRI
T2 sequence (P12314 16-288 limits assumed): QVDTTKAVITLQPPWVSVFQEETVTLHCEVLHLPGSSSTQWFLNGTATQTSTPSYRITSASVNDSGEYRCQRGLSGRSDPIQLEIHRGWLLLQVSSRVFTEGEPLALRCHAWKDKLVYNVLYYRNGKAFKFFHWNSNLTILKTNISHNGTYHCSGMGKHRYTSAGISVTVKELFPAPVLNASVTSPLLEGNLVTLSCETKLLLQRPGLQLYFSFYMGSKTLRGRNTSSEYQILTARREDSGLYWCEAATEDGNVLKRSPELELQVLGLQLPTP
The assay is described as follows: SPR, Fc captured, receptor as analyte. The procedure: as §1, §2

Assay [3] deals with T3, Fc gamma receptor RIIA H167 (human, UniProt P12318 36-218).
T3 construct: soluble SPR analyte
T3 sequence (looked up): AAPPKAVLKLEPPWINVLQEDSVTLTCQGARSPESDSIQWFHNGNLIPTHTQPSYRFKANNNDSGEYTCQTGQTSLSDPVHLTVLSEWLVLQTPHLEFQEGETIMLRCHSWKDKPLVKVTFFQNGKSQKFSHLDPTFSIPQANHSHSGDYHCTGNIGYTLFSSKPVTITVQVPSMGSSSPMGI
The assay is described as follows: SPR, Fc captured, receptor as analyte. As to the method:
as §1, §2

The target in assay [4] is T4, Fc gamma receptor RIIB/C (human, UniProt P31994 46-217).
T4 construct: soluble SPR analyte
T4 sequence (looked up): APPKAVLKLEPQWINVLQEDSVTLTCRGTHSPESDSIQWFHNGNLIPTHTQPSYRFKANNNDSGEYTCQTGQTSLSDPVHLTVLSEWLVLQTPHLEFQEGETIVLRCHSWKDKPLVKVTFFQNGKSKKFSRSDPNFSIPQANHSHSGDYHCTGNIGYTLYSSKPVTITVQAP
The assay is described as follows: SPR, Fc captured, receptor as analyte. As to the method:
as §1, §2

Assay [5] addresses T5, Fc gamma receptor RIIIA V176 (human, UniProt P08637 17-208).
T5 construct: soluble SPR analyte
The assay is described as follows: SPR, Fc captured, receptor as analyte. The procedure: as §1, §2

Assay [6] concerns the target T6, Fc gamma receptor RIIIB (human, UniProt O75015 17-200).
T6 construct: soluble SPR analyte
In words: SPR, Fc captured, receptor as analyte. As to the method:
as §1, §2

The target in assay [7] is T7, Cyno RIII (cynomolgus monkey, UniProt Q8SPW2 17-208).
T7 construct: extracellular domain
T7 sequence (Q8SPW2 17-208): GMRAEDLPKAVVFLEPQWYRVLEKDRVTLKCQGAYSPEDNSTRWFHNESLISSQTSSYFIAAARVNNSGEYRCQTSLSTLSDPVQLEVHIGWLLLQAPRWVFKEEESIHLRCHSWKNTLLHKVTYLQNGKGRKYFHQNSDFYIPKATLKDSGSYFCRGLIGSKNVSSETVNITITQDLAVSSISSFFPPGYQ
The assay is described as follows: SPR, Fc captured, receptor as analyte. As to the method:
as §2

Assay [8] addresses T8, Fc gamma receptor RI on CHO-K1SV cells (human, UniProt P12314 16-374).
T8 construct: whole, on cells; also called FcγR1 cells
The assay is described as follows: flow cytometry, CHO-K1SV transfectants. As to the method: (§3) CHO-K1SV cells stably transfected with a series of FcγR receptors were incubated with each of the […] listed in Table 23. A typical experiment labeled approximately 100,000 cells per well, in 96-well plates, with a range of binding molecule concentrations of 1 to 1000 nM, in 100 μl of PBS buffer with 0.2% BSA and 2 mM EDTA, for 30 minutes on ice, followed by washes and incubation with PE-labeled minimum cross species reactive secondary antibody, goat anti-human IgG Fcγ, F(ab′)2 ([…]) for 30 minutes to 1 hour on ice. Signal from bound molecules was detected using a LSR-II™ flow cytometer (BD Biosciences) and analyzed by FlowJo flow cytometry analysis software. Mean fluorescence intensity (MFI) of bound molecules on cells was determined after exclusion of doublets.
A general note: In flow cytometry, cells or beads pass a laser one at a time.

The target in assay [9] is T9, Fc gamma receptor RIIA H131 on CHO-K1SV cells (human, UniProt P12318 34-317).
T9 construct: whole, on cells
T9 sequence (looked up): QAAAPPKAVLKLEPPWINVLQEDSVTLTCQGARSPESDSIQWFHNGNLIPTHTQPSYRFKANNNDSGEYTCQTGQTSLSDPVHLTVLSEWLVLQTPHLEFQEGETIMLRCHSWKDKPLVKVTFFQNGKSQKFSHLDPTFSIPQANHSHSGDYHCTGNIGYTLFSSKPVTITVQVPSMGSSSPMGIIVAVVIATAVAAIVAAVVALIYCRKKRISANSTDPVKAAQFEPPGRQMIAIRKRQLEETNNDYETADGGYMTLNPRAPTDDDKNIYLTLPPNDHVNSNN
The assay is described as follows: flow cytometry, CHO-K1SV transfectants. As to the method: as §3

Assay [10] has as its target T10, Fc gamma receptor RIIB/C on CHO-K1SV cells (human, UniProt P31994 43-310).
T10 construct: whole, on cells
T10 sequence (looked up): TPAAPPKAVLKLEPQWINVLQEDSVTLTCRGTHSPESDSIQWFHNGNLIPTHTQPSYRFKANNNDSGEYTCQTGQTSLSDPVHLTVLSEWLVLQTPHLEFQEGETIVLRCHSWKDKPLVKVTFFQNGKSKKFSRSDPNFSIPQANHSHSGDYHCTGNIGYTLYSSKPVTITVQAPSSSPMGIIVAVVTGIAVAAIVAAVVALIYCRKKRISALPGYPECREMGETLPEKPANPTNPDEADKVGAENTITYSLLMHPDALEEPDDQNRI
In words: flow cytometry, CHO-K1SV transfectants. The procedure:
as §3

Assay [11] addresses T11, Fc gamma receptor RIIIA F158 on CHO-K1SV cells (human, UniProt P08637 17-254).
T11 construct: whole, on cells
In words: flow cytometry, CHO-K1SV transfectants. As to the method: as §3

Assay [12] concerns the target T12, Fc gamma receptor RIIIA V158 on CHO-K1SV cells (human, UniProt P08637 17-254).
T12 construct: whole, on cells
The assay is described as follows: flow cytometry, CHO-K1SV transfectants. As to the method: as §3

Assay [13] deals with T13, Fc gamma receptor RIIIB on CHO-K1SV cells (human, UniProt O75015 17-200).
T13 construct: whole, on cells
T13 sequence (O75015 17-200): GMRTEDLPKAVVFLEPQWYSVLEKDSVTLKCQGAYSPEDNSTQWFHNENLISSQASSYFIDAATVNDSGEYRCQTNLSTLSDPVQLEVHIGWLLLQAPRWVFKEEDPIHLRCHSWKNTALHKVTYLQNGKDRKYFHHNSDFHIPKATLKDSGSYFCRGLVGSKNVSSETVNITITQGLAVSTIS
The assay is described as follows: flow cytometry, CHO-K1SV transfectants. As to the method: as §3

For assay [14], the target named is T14, Recombinant FcRn/b2M protein (human, UniProt P55899 24-297; P61769 21-119, limits assumed).
T14 construct: also called hFcRn/b2M; neonatal Fc receptor
T14 sequence (P55899 24-297 limits assumed, chain 1 of 2): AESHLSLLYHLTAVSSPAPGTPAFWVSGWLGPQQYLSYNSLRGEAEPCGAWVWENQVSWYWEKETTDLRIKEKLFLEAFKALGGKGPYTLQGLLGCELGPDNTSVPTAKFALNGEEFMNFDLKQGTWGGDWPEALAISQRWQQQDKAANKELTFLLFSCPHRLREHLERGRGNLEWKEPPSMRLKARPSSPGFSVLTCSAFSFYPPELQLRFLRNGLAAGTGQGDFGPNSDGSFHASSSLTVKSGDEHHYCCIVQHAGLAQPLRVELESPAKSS
T14 sequence (P61769 21-119 limits assumed, chain 2 of 2): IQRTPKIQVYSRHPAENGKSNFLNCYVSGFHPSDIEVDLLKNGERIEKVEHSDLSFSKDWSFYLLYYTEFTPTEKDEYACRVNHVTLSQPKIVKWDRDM
In words: SPR pH 6.0, FcRn/b2M immobilized, two-state reaction model. The procedure:
Recombinant FcRn/b2M protein was generated via transient transfection of HEK-293 cells with a bi-cistronic vector containing the genes for both FcRn and […]. The complex was purified using IMAC chromatography and subsequently buffer exchanged into IMAC elution buffer after verifying purity of the IMAC eluate by analytical SEC. hFcRn/b2M at 10 μg/ml in 10 mM sodium acetate (pH 4.5) was immobilized on a CM5 chip by direct amine coupling chemistry to a level of ˜600 RU. A reference flow cell was left blank.
Different concentrations of the Fc variant protein (5-80 nM by 2-fold dilutions in pH 6.0 running buffer) including running buffer as blank were injected in randomized order at 30 μL/min for 180 seconds followed by a 120 second dissociation period.
Sensorgrams obtained from kinetic SPR measurements were analyzed by the double subtraction method. The signal from the reference flow cell was subtracted from the analyte binding response obtained from flow cell with immobilized ligands. Buffer reference was subtracted from analyte binding responses, and the final double-referenced data were analyzed with Biacore T200 Evaluation software (2.0, GE), globally fitting data to derive kinetic parameters. All sensorgrams were fitted using two-state reaction model, as described in Weirong Wang et al, DrugMetab Dispos.: 39(9): 1469-77 (2011).

In assay [15] the target is T15, Fc gamma receptor RIIA R167 (human, UniProt P12318 36-218).
T15 construct: soluble SPR analyte
T15 sequence (looked up): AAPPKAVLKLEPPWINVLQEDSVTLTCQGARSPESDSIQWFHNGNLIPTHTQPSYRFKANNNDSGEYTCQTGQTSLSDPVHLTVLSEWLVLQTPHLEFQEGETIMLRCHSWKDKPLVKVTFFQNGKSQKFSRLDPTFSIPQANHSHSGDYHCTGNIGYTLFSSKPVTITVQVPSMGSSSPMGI
The assay is described as follows: SPR, Fc captured, receptor as analyte, relative to wild type Fc. As to the method:
as §1, §2

Assay [16] deals with T5, Fc gamma receptor RIIIA V176. The assay is described as above. As to the method: as §1, §2

T11 sequence (P08637 17-254): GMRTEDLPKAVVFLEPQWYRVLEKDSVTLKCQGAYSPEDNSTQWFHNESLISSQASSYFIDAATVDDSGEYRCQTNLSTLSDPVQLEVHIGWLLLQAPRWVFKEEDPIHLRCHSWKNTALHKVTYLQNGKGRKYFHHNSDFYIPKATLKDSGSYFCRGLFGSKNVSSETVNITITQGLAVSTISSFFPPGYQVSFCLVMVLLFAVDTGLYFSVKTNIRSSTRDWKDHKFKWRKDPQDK
T1 sequence (P02745 23-245 limits assumed, chain 1 of 3): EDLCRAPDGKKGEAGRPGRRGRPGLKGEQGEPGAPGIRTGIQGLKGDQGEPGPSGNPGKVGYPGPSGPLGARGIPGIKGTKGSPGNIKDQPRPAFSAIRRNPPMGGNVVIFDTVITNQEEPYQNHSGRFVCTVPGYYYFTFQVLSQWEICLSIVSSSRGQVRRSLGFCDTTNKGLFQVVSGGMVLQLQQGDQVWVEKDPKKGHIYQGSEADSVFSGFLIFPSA
T1 sequence (P02746 28-253 limits assumed, chain 2 of 3): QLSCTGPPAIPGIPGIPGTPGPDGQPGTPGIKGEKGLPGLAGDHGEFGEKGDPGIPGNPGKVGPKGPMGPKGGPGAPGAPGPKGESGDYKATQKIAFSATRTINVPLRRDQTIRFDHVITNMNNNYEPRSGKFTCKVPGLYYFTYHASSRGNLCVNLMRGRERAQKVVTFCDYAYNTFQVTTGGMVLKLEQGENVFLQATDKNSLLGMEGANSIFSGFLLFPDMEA
T1 sequence (P02747 29-245 limits assumed, chain 3 of 3): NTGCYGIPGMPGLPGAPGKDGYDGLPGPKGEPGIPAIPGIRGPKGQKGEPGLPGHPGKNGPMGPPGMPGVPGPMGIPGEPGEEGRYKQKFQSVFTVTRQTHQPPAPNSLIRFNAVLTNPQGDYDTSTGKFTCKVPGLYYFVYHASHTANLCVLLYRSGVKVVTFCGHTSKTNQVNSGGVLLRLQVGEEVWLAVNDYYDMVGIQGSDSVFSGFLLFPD
T8 sequence (P12314 16-374): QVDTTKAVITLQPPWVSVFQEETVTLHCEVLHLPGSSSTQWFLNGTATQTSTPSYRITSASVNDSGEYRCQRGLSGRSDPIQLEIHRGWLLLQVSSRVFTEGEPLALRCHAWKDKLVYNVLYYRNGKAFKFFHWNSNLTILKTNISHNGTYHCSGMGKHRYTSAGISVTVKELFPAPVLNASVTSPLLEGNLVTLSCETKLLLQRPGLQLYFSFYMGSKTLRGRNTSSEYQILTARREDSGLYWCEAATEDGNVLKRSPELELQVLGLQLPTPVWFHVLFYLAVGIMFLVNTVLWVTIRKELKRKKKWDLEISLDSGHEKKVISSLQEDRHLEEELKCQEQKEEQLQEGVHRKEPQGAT
T5 sequence (P08637 17-208 F176V): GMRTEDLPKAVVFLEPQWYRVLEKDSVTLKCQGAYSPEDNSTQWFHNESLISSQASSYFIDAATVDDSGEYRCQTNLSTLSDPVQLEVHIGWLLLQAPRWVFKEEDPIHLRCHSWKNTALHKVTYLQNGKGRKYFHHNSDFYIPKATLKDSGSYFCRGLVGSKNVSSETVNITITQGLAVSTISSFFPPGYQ
T6 sequence (O75015 17-200): as the sequence (O75015 17-200) above
T12 sequence (P08637 17-254 F176V): as the sequence (P08637 17-254) above, with F160V counted along it

B1: TSC 1007 (other)
chain: EPKSSDKTHTCPPCPAPPAAAPSVFLFPPKPKDTLMISRTPEVTCVVVDVSHEDPEVKFNWYVDGVEVHNAKTKPREEQYNSTYRVVSVLTVLHQDWLNGKEYKCAVSNKALPAPIEKTISKAKGQPREPQVYTLPPSRDELTKNQVSLTCLVKGFYPSDIAVEWESNGQPENNYKTTPPVLDSDGSFFLYSKLTVDKSRWQQGNVFSCSVMHEALHNHYTQKSLSLSPG
notes: IgG1 Fc with E233P, L234A, L235A, deletion of G236, G237A, K322A (EU); also called PAAdel TSC01007
What is called Kd is a measure of binding affinity in units of concentration. With B1, the binding result in assay [1], in [2], in assay [3], in [4], in assay [5] and in assay [6] was “no binding” throughout. In addition, the binding result in [7] is recorded as “no binding”; in assay [8] it was “no binding (tested: 1 to 1000 nM)”; in assay [9], “no binding (tested: 1 to 1000 nM)”; in [10] it was “no binding (tested: 1 to 1000 nM)”; in assay [11], “no binding (tested: 1 to 1000 nM)”; in assay [12], “no binding (tested: 1 to 1000 nM)”. For the same molecule, the binding result was “no binding (tested: 1 to 1000 nM)” in [13] and “binds” in assay [15]. Also, in assay [14], the Kd came to 19 nM.

B2: TSC 1004 (other)
chain: EPKSSDKTHTCPPCPAPPVAGAPSVFLFPPKPKDTLMISRTPEVTCVVVDVSHEDPEVKFNWYVDGVEVHNAKTKPREEQYNSTYRVVSVLTVLHQDWLNGKEYKCAVSNKALPAPIEKTISKAKGQPREPQVYTLPPSRDELTKNQVSLTCLVKGFYPSDIAVEWESNGQPENNYKTTPPVLDSDGSFFLYSKLTVDKSRWQQGNVFSCSVMHEALHNHYTQKSLSLSPG
notes: IgG1 Fc with E233P, L234V, L235A, G237A, K322A (EU); also called PVAG TSC01004
Take B2: the binding result in assay [1], in [2], in [3], in assay [4], in [5] and in assay [6] was “no binding” throughout. Also, the binding result is “no binding” in assay [7]; “no binding (tested: 1 to 1000 nM)” in [8]; “no binding (tested: 1 to 1000 nM)” in [9]; “no binding (tested: 1 to 1000 nM)” in assay [10]; “no binding (tested: 1 to 1000 nM)” in [11]; “no binding (tested: 1 to 1000 nM)” in assay [12]. Further, the binding result in [13] was “no binding (tested: 1 to 1000 nM)”; in [15], “binds”. For the same molecule, in [14], the dissociation constant (Kd) worked out at 20 nM.

B3: TSC 1006 (other)
chain: EPKSSDKTHTCPPCPAPPAAGAPSVFLFPPKPKDTLMISRTPEVTCVVVDVSHEDPEVKFNWYVDGVEVHNAKTKPREEQYNSTYRVVSVLTVLHQDWLNGKEYKCAVSNKALPAPIEKTISKAKGQPREPQVYTLPPSRDELTKNQVSLTCLVKGFYPSDIAVEWESNGQPENNYKTTPPVLDSDGSFFLYSKLTVDKSRWQQGNVFSCSVMHEALHNHYTQKSLSLSPG
notes: IgG1 Fc with E233P, L234A, L235A, G237A, K322A (EU); also called PAAG TSC01006
Consider B3, for which the binding result in assay [1], in assay [2], in assay [3], in [4], in [6] and in assay [7] was “no binding” each time. Further, the binding result in assay [8] is given as “no binding (tested: 1 to 1000 nM)”; in assay [9], “no binding (tested: 1 to 1000 nM)”; in assay [10], “no binding (tested: 1 to 1000 nM)”; in assay [11] it was “no binding (tested: 1 to 1000 nM)”; in [13] it was “no binding (tested: 1 to 1000 nM)”; in assay [15] it was “binds”. Further, the binding result in assay [16] is “binds”. The dissociation constant (Kd) in assay [14] stood at 19 nM.
